Patent publication US20240343771A1 (Chugai, published 2024)

T1: human IL-12 (human, UniProt P29460 23-328; P29459 23-219)
T1 construct: also called Interleukin-12
T1 sequence 1: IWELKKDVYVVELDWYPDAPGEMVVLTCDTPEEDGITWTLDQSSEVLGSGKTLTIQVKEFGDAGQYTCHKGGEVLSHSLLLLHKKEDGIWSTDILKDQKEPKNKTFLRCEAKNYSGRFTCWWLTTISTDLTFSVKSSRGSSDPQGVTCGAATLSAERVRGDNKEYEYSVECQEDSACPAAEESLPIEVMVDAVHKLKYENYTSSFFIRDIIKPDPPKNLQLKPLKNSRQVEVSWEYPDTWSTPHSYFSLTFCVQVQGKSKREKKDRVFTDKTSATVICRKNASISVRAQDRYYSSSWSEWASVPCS
T1 sequence 2: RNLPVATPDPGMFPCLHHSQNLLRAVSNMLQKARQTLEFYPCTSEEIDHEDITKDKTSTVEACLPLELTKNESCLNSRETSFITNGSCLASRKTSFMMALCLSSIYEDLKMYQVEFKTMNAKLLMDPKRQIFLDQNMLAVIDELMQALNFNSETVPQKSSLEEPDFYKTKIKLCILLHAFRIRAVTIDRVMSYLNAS


Biological target: T1, human IL-12
Assay: SPR (Biacore T200), 37 C, pH 7.4; captured antibody, IL-12 analyte
Summary of the method: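 Antibodies captured (~50 RU) on anti-human Fc surface, CM4 chip; 5 nM human IL-12 injected as analyte, then dissociation. Run at 37 °C in 20 mM ACES pH 7.4, 150 mM NaCl, 0.05% Tween 20; 3M MgCl₂ regeneration between cycles.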

| Binder | Kd [nM] |
| --- | --- |
| Anti-IL-12 antibody Ab1 variant Y91M VH/A43Q, L46Q, Y49A VL (antibody, name in Kabat numbering, V domains shown, Ab1 with VH/VL interface substitutions; Kabat numbering) VH: QVQLVQSGAEVKKPGSSVKVSCKASGGTFSDYYLHWVRQAPGQGLEWMGWIDPENGDTEYAPKFQGRVTITADESTSTAYMELSSLRSEDTAVYMCARNKELRYFDVWGQGTLVTVSS VL: DIVMTQSPLSLPVTPGEPASISCRASQSISINLHWYQQKPGQQPRQLIAFASQSISGVPSRFSGSGSGTDFTLTISSLQPEDFATYYCQQSNSFPLTFGQGTKVEIKR | 4.41 |
| Anti-IL-12 antibody Ab1 variant Y91M VH/Y49A, Y87L VL (antibody, name in Kabat numbering, V domains shown, Ab1 with VH/VL interface substitutions; Kabat numbering) VH: QVQLVQSGAEVKKPGSSVKVSCKASGGTFSDYYLHWVRQAPGQGLEWMGWIDPENGDTEYAPKFQGRVTITADESTSTAYMELSSLRSEDTAVYMCARNKELRYFDVWGQGTLVTVSS VL: DIVMTQSPLSLPVTPGEPASISCRASQSISINLHWYQQKPGQAPRLLIAFASQSISGVPSRFSGSGSGTDFTLTISSLQPEDFATYLCQQSNSFPLTFGQGTKVEIKR | 3.1 |
| Anti-IL-12 antibody Ab1 variant Y91M VH/L46Q, Y49A, Y87M VL (antibody, name in Kabat numbering, V domains shown, Ab1 with VH/VL interface substitutions; Kabat numbering) VH: QVQLVQSGAEVKKPGSSVKVSCKASGGTFSDYYLHWVRQAPGQGLEWMGWIDPENGDTEYAPKFQGRVTITADESTSTAYMELSSLRSEDTAVYMCARNKELRYFDVWGQGTLVTVSS VL: DIVMTQSPLSLPVTPGEPASISCRASQSISINLHWYQQKPGQAPRQLIAFASQSISGVPSRFSGSGSGTDFTLTISSLQPEDFATYMCQQSNSFPLTFGQGTKVEIKR | 3.83 |
| Anti-IL-12 antibody Ab1 variant Y91M VH/L46Q, Y49A VL (antibody, name in Kabat numbering, V domains shown, Ab1 with VH/VL interface substitutions; Kabat numbering) VH: QVQLVQSGAEVKKPGSSVKVSCKASGGTFSDYYLHWVRQAPGQGLEWMGWIDPENGDTEYAPKFQGRVTITADESTSTAYMELSSLRSEDTAVYMCARNKELRYFDVWGQGTLVTVSS VL: DIVMTQSPLSLPVTPGEPASISCRASQSISINLHWYQQKPGQAPRQLIAFASQSISGVPSRFSGSGSGTDFTLTISSLQPEDFATYYCQQSNSFPLTFGQGTKVEIKR | 3.83 |

Binders with a lower Kd, results first:

| Kd [nM] | Binder |
| --- | --- |
| 1.87 | Anti-IL-12 antibody Ab1 variant Y91M VH/A43Q, Y49A VL (antibody, name in Kabat numbering, V domains shown, Ab1 with VH/VL interface substitutions; Kabat numbering) VH: QVQLVQSGAEVKKPGSSVKVSCKASGGTFSDYYLHWVRQAPGQGLEWMGWIDPENGDTEYAPKFQGRVTITADESTSTAYMELSSLRSEDTAVYMCARNKELRYFDVWGQGTLVTVSS VL: DIVMTQSPLSLPVTPGEPASISCRASQSISINLHWYQQKPGQQPRLLIAFASQSISGVPSRFSGSGSGTDFTLTISSLQPEDFATYYCQQSNSFPLTFGQGTKVEIKR |
| 1.83 | Anti-IL-12 antibody Ab1 variant Y91M VH/P44A, Y49A VL (antibody, name in Kabat numbering, V domains shown, Ab1 with VH/VL interface substitutions; Kabat numbering) VH: QVQLVQSGAEVKKPGSSVKVSCKASGGTFSDYYLHWVRQAPGQGLEWMGWIDPENGDTEYAPKFQGRVTITADESTSTAYMELSSLRSEDTAVYMCARNKELRYFDVWGQGTLVTVSS VL: DIVMTQSPLSLPVTPGEPASISCRASQSISINLHWYQQKPGQAARLLIAFASQSISGVPSRFSGSGSGTDFTLTISSLQPEDFATYYCQQSNSFPLTFGQGTKVEIKR |
| 1.69 | Anti-IL-12 antibody Ab1 variant Y91M VH/A43Q, P44A, Y49A VL (antibody, name in Kabat numbering, V domains shown, Ab1 with VH/VL interface substitutions; Kabat numbering) VH: QVQLVQSGAEVKKPGSSVKVSCKASGGTFSDYYLHWVRQAPGQGLEWMGWIDPENGDTEYAPKFQGRVTITADESTSTAYMELSSLRSEDTAVYMCARNKELRYFDVWGQGTLVTVSS VL: DIVMTQSPLSLPVTPGEPASISCRASQSISINLHWYQQKPGQQARLLIAFASQSISGVPSRFSGSGSGTDFTLTISSLQPEDFATYYCQQSNSFPLTFGQGTKVEIKR |
| 1.07 | Anti-IL-12 antibody Ab1 variant Y91M VH/Y49A, F98L VL (antibody, name in Kabat numbering, V domains shown, Ab1 with VH/VL interface substitutions; Kabat numbering) VH: QVQLVQSGAEVKKPGSSVKVSCKASGGTFSDYYLHWVRQAPGQGLEWMGWIDPENGDTEYAPKFQGRVTITADESTSTAYMELSSLRSEDTAVYMCARNKELRYFDVWGQGTLVTVSS VL: DIVMTQSPLSLPVTPGEPASISCRASQSISINLHWYQQKPGQAPRLLIAFASQSISGVPSRFSGSGSGTDFTLTISSLQPEDFATYYCQQSNSFPLTLGQGTKVEIKR |
| 0.827 | Anti-IL-12 antibody Ab1 variant Y91M VH/- (antibody, name in Kabat numbering, V domains shown, Ab1 with VH/VL interface substitutions; Kabat numbering) VH: QVQLVQSGAEVKKPGSSVKVSCKASGGTFSDYYLHWVRQAPGQGLEWMGWIDPENGDTEYAPKFQGRVTITADESTSTAYMELSSLRSEDTAVYMCARNKELRYFDVWGQGTLVTVSS VL: DIVMTQSPLSLPVTPGEPASISCRASQSISINLHWYQQKPGQAPRLLIYFASQSISGVPSRFSGSGSGTDFTLTISSLQPEDFATYYCQQSNSFPLTFGQGTKVEIKR |
